The subject of data set [1] is wild-type B-domain deleted FVIII (FVIII-WT).
For data set [2], the system named is FVIII-R336Q/R562Q (FVIII-QQ).

This is an account of results in US20220403005.

Sequence of wild-type B-domain deleted FVIII (FVIII-WT) (chain, as listed by the source, stated change not applied): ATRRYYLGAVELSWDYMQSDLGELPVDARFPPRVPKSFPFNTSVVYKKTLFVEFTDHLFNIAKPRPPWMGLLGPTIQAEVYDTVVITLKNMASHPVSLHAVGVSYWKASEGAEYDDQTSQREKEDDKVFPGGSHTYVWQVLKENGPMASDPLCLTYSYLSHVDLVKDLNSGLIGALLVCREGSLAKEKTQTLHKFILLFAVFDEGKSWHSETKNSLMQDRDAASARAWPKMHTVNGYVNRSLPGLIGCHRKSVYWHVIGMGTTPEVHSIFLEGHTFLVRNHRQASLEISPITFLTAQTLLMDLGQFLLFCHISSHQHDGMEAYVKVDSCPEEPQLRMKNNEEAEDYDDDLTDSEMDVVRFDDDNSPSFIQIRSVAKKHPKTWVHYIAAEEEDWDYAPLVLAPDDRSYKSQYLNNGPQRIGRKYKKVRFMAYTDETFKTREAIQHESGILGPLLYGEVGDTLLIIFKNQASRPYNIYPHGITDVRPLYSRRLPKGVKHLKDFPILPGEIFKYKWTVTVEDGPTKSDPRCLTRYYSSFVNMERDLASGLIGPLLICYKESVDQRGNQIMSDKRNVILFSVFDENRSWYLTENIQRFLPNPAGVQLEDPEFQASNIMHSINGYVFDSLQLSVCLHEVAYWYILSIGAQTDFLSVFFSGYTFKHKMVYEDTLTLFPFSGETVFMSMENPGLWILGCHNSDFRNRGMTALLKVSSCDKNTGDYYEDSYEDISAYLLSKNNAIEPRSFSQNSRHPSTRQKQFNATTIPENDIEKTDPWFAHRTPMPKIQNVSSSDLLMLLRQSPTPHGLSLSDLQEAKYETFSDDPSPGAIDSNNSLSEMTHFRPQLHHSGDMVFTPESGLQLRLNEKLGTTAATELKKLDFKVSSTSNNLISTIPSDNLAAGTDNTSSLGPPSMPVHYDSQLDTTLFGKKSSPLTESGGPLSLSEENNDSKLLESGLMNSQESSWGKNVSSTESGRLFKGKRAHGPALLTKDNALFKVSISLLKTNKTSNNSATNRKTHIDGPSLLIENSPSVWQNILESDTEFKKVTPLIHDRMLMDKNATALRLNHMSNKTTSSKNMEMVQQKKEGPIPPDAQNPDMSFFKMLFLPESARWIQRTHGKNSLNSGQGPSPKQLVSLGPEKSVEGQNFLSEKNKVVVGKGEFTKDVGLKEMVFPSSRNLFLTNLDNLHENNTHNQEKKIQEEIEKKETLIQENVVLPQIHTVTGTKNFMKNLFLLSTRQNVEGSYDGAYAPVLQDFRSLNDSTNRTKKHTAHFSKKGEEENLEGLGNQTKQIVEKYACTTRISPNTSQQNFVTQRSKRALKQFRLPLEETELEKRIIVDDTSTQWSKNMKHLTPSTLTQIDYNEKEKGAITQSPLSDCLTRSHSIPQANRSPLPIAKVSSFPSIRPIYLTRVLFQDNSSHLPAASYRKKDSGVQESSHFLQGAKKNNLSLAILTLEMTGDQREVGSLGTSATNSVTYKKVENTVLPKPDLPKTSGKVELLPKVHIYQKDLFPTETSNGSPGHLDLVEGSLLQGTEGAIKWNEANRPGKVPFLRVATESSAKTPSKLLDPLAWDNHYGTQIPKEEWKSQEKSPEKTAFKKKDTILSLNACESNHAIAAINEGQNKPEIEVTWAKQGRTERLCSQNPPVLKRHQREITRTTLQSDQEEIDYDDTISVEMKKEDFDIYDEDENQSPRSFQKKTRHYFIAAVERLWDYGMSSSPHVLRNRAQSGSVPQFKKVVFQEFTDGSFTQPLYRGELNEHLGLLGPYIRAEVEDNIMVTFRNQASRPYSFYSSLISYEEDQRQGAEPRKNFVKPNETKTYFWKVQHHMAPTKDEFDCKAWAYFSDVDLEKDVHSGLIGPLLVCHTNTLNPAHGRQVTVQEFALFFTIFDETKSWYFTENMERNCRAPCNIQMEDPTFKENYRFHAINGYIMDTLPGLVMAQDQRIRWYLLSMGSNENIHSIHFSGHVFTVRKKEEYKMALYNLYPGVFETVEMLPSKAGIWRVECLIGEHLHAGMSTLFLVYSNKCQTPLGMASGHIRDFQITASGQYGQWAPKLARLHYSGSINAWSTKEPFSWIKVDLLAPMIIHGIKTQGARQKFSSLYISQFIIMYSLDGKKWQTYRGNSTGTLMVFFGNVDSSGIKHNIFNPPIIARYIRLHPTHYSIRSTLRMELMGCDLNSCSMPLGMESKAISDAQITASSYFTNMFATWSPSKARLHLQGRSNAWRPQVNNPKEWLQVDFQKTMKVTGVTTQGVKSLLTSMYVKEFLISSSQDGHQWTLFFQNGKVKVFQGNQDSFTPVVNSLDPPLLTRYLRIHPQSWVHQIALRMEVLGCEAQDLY
Sequence of FVIII-R336Q/R562Q (FVIII-QQ) (chain, as listed by the source R336Q R562Q): as the sequence (chain, as listed by the source, stated change not applied) above, with R336Q, R562Q counted along it
Sequence of FVIII-R372Q (chain, as listed by the source R372Q): as the sequence (chain, as listed by the source, stated change not applied) above, with R372Q counted along it

As for thrombin, the “SDS-PAGE of cleavage products after incubation with thrombin” value was “Thrombin cleaved both proteins to yield fragments representing cleavage at R1689 (A3-C1-C2; Mr=70,000) and R740/R372 (A1, Mr=50,000 and A2, Mr=43,000), corresponding to FVIIIa” in data set [1]; “Thrombin cleaved both proteins to yield fragments representing cleavage at R1689 (A3-C1-C2; Mr=70,000) and R740/R372 (A1, Mr=50,000 and A2, Mr=43,000), corresponding to FVIIIa” in data set [2].

Regarding activated protein C (APC), in data set [1], the “loss of FVIII activity (intrinsic Xase assay) after 1-hour APC incubation” value is on record as “FVIII-WT lost approximately 75% activity after a 1-hour APC incubation”; the “residual FVIII activity (intrinsic Xase assay) after incubation with 6 nM APC and 100 nM protein S” value is “FVIII-WT lost nearly all function within 15 minutes of combined APC and PS incubation”. Moreover, in data set [2], the “residual FVIII activity (intrinsic Xase assay) after 1-hour APC incubation” value was “the protein maintained >90% activity following a 1-hour APC incubation”; the “residual FVIII activity (intrinsic Xase assay) after incubation with 6 nM APC and 100 nM protein S” value is “combined PS and APC incubation also accelerated FVIII-QQ loss of function, albeit to a lesser extent than FVIII-WT”. Also, the “western blot of reaction products after 30-minute incubation with APC” value in the data set on FVIII-R372Q is “incubating a FVIII-R372Q mutant with APC, which did not produce the A2 fragment”.
